{"source": "paper PMC7264359", "about": "“AcrIF9 tethers non-sequence specific dsDNA to the CRISPR RNA-guided surveillance complex” (Nature Communications, 2020)", "molecules": {"B1": {"name": "Cas7f (natural protein, Pseudomonas aeruginosa)", "chain": "SKPILSTASVLAFERKLDPSDALMSAGAWAQRDASQEWPAVTVREKSVRGTISNRLKTKDRDPAKLDASIQSPNLQTVDVANLPSDADTLKVRFTLRVLGGAGTPSACNDAAYRDKLLQTVATYVNDQGFAELARRYAHNLANARFLWRNRVGAEAVEVRINHIRQGEVARAWRFDALAIGLRDFKADAELDALAELIASGLSGSGHVLLEVVAFARIGDGQEVFPSQELILDKGDKKGQKSKTLYSVRDAAAIHSQKIGNALRTIDTWYPDEDGLGPIAVEPYGSVTSQGKAYRQPKQKLDFYTLLDNWVLRDEAPAVEQQHYVIANLIRGGVFGEAEEK", "notes": "Cas7f, backbone subunit of the type I-F Csy complex of Pseudomonas aeruginosa; Stood in the assay as a subunit of the Csy complex (six copies along the crRNA); also called Cas7.4f; Cas7.6f; source: E. coli BL21 (DE3), co-expressed with the other Csy genes, a synthetic CRISPR and AcrIF9; purified within the complex (Ni-NTA, Superdex 200)"}}, "key": {"[1]": {"target": "type I-F CRISPR RNA-guided surveillance complex (Csy) (Pseudomonas aeruginosa) (UniProt Q02ML9)", "sequence (Q02ML9 whole entry, chain 1 of 3)": "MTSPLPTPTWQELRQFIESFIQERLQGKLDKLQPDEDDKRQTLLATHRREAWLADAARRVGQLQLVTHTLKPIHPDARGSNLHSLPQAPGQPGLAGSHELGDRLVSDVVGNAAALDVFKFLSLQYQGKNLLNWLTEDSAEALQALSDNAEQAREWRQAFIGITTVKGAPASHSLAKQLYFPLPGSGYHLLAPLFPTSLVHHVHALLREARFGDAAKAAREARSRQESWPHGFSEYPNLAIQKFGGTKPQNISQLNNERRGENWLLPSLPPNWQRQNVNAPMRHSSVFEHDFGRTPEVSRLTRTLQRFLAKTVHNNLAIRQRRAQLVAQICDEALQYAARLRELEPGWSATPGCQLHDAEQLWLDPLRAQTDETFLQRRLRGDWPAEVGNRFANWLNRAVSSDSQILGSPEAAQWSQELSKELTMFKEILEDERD", "sequence (Q02MM0 whole entry, chain 2 of 3, further chain)": "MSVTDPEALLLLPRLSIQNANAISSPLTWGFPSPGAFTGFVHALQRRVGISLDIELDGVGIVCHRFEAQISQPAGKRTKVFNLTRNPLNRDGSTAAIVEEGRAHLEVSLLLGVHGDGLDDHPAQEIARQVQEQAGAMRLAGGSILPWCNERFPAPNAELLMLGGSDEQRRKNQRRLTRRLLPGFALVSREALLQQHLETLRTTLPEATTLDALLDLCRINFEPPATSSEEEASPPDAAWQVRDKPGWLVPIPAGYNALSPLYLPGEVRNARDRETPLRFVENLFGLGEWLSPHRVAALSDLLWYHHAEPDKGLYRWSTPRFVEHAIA", "sequence (Q02MM2 whole entry, chain 4 of 3, further chain)": "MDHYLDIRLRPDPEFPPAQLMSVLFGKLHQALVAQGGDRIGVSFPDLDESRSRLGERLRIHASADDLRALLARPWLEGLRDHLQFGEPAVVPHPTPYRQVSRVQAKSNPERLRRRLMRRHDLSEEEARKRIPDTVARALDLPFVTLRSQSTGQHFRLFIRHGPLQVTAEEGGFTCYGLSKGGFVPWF", "assay": "cryo-EM structure; Csy–AcrIF9 complex co-expressed in E. coli and co-purified (Ni-NTA, Superdex 200 in 20 mM HEPES pH 7.5, 100 mM NaCl, 5% glycerol, 1 mM TCEP); nominal resolution ~3.9 Å"}, "[2]": {"target": "the molecule itself", "assay": "cryo-EM structure; Csy–AcrIF9 complex co-expressed in E. coli and co-purified (Ni-NTA, Superdex 200 in 20 mM HEPES pH 7.5, 100 mM NaCl, 5% glycerol, 1 mM TCEP); nominal resolution ~3.9 Å"}}}
{"molecule": "anti-CRISPR protein IF9 (AcrIF9), co-expressed with Csy (natural protein)", "values": [{"measurement": "stoichiometry N", "setting": "[1]", "value": 2}]}
{"molecule": "B1", "values": [{"measurement": "stoichiometry N", "setting": "[2]", "value": 6}]}
